Experimental data reported in article PMC4221783.

Tests used:
[1] = biological target: Vangl2 lacking the PDZ-binding motif at the C-terminal end; assay: co-IP
[2] = biological target: Vangl2 lacking the Prickle-binding domain (UniProt Q91ZD4); assay: co-IP
Sequence of Vangl2 lacking the Prickle-binding domain (Q91ZD4 whole entry, the tested form may be a part): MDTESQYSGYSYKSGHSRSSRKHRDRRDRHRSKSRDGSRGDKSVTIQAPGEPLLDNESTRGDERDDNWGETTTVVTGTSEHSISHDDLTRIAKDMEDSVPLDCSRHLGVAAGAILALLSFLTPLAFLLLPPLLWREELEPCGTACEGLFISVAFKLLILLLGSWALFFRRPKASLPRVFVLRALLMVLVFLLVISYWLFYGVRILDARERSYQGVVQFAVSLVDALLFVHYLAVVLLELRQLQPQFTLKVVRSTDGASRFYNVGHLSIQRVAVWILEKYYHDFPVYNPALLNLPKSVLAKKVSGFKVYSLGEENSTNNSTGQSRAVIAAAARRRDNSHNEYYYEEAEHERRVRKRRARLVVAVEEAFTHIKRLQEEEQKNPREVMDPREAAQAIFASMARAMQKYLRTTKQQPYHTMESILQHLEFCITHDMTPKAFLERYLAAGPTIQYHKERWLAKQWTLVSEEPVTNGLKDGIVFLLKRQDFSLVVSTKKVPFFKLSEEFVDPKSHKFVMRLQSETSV

Sequence of Vangl2 lacking the PDZ-binding motif at the C-terminal end (P84889 whole entry, the tested form may be a part): as the sequence (Q91ZD4 whole entry, the tested form may be a part) above

association in co-IP, percent of WT [1]: 87.1%
association in co-IP, percent of WT [2]: 28.4%
Substance: E-cadherin (from UniProt P09803 157-884) (natural protein)
